In CN111995685A (SHANGHAI INST MATERIA MEDICA CAS; UNIV XIAMEN, dated 2020):
Each block holds one binder with its values, some of them ahead of it.

Assays:
抗原人源PD-1蛋白 [1] = target: T1, 抗原人源PD-1蛋白 (human, UniProt Q15116 25-167, limits assumed); test: ELISA (binding and PD-L1 blocking) and BLI with PD-1 antigen, IgG format
T1 construct: The construct is not described; also called 抗原PD-1; 抗原PD-1蛋白

抗原人源PD-1蛋白 [2] = target: T1, 抗原人源PD-1蛋白; test: ELISA of humanised Fab phage clones on PD-1 antigen

T1 sequence (Q15116 25-167 limits assumed): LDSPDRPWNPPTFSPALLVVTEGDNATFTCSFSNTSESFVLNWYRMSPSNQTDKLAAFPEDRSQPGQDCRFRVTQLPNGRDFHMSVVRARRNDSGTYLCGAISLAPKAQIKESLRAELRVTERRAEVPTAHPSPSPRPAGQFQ

binding result (抗原人源PD-1蛋白 [1]): binds
B1: T16# (antibody, V domains shown)
VH: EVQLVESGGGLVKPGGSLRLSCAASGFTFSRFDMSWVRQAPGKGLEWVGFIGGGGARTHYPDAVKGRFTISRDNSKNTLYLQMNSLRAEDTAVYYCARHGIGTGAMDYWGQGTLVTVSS
VL: ETTLTQSPAFMSATPGDKVNISCRASKSVDNYGYSFMHWYQQKPGQAPRLLIYRSANLASGVPDRFSGSGSGTDFTLKISRVEAEDVGVYYCQQSNEDPTFGGGTKLEIK
notes: also called 抗PD-1单抗T16#

binding result (抗原人源PD-1蛋白 [2]): binds
B2: T1# (antibody, V domains shown)
VH: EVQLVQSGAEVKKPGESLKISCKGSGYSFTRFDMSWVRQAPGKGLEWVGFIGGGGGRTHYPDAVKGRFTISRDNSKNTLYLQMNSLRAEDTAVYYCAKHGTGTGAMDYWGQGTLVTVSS
VL: EIVLTQSPGTLSLSPGERATLSCRASKSVDNYGYSFMHWYQQKPGQAPRLLIYRSANLASGVPSRFSGSGSGTDFTLTINSLEAEDAATYYCQQSNEDPTFGGGTKVEIK
notes: also called 抗PD-1单抗T1#; 人源化PD-1抗体T1#

binding result (抗原人源PD-1蛋白 [1]): binds
B3: T82# (antibody, V domains shown)
VH: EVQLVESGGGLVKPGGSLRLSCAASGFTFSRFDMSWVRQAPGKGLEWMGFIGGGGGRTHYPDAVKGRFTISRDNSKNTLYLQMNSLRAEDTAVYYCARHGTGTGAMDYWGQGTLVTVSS
VL: DIQMTQSPSTLSASVGDRVTISCRASKSVDNYGYSFMHWYQQKPGQAPRLLIYRSANLASGVPDRFSGSGSGTDFTLTISSLQAEDVAVYYCQQSNEDPTFGGGTKLEIK
notes: also called 抗PD-1单抗T82#
